Data from PMC8692352 (2023).

T1: plasminogen (Homo sapiens, UniProt P00747)
T1 chain: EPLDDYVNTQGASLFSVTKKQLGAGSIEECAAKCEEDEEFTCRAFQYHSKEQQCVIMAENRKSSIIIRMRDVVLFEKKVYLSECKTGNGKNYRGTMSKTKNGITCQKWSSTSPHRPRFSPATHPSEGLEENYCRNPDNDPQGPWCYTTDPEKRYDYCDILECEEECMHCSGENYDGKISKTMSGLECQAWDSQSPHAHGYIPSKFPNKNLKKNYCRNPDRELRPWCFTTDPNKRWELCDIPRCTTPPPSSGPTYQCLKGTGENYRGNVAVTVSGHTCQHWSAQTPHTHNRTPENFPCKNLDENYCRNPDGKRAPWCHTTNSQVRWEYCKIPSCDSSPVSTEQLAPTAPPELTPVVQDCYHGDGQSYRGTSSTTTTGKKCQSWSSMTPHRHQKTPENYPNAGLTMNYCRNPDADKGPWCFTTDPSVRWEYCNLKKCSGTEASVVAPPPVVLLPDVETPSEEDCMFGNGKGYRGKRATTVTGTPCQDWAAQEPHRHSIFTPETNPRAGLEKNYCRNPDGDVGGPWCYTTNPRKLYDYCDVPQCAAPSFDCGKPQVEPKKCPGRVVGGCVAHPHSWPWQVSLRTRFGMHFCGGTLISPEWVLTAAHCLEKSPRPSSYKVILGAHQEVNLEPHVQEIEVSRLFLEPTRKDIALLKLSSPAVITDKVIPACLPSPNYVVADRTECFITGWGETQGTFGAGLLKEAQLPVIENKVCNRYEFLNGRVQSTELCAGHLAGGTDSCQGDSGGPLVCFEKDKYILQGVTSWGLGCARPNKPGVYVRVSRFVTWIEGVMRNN


Biological target: T1, plasminogen
Test: SPR

Row | Binder | Kd [nM]
1 | hemoglobin A (protein) chain 1: not shown chain 2: not shown | 3600
2 | tPA (protein) SYQVICRDEKTQMIYQQHQSWLRPVLRSNRVEYCWCNSGRAQCHSVPVKSCSEPRCFNGGTCQQALYFSDFVCQCPEGFAGKCCEIDTRATCYEDQGISYRGTWSTAESGAECTNWNSSALAQKPYSGRRPDAIRLGLGNHNYCRNPDRDSKPWCYVFKAGKYSSEFCSTPACSEGNSDCYFGNGSAYRGTHSLTESGASCLPWNSMILIGKVYTAQNPSAQALGLGKHNYCRNPDGDAKPWCHVLKNRRLTWEYCDVPSCSTCGLRQYSQPQFRIKGGLFADIASHPWQAAIFAKHRRSPGERFLCGGILISSCWILSAAHCFQERFPPHHLTVILGRTYRVVPGEEEQKFEVEKYIVHKEFDDDTYDNDIALLQLKSDSSRCAQESSVVRTVCLPPADLQLPDWTECELSGYGKHEALSPFYSERLKEAHVRLYPSSRCTSQHLLNRTVTDNMLCAGDTRSGGPQANLHDACQGDSGGPLVCLNDGRMTLVGIISWGLGCGQKDVPGVYTKVTNYLDWIRDNMRP | 48

Other lines, results leading:

Row | Kd [nM] | Binder
3 | 4000 | β-globin chain (protein) not shown
4 | 93 | α-globin chain (protein) not shown
